According to publication PMC7511963 (NPJ Vaccines, 2020):

B1: rabbit monoclonal antibody H16.001 (antibody, V domains shown)
VH: QSVKESEGRLVTPGTPLTLTCTASGFTMSRYHMTWVRQAPGKGLEWIGIIYARNSDTYYANWAKGRFTISKTSTTVDLKITSPTIEDTATYFCARVDSDSSGAFDRLDLWGQGTLVTVSS
VL: DPMLTQTAASVEVAVGGTVTIKCQASQSIGGYLSWYQQKPGQRPKLLIYRASTLASGVPSRFKGSGSGTEYTLTFSGVECADAAAYYCQQGYTSSDINNAFGGGTEVVVK
B2: H16.001 Fab (Fab, V domains shown)
VH: QSVKESEGRLVTPGTPLTLTCTASGFTMSRYHMTWVRQAPGKGLEWIGIIYARNSDTYYANWAKGRFTISKTSTTVDLKITSPTIEDTATYFCARVDSDSSGAFDRLDLWGQGTLVTVSS
VL: DPMLTQTAASVEVAVGGTVTIKCQASQSIGGYLSWYQQKPGQRPKLLIYRASTLASGVPSRFKGSGSGTEYTLTFSGVECADAAAYYCQQGYTSSDINNAFGGGTEVVVK
notes: also called Fab H16.001; H16.001 Fabs

Key:
[1] = target: HPV16 L1L2 pseudovirus (human papillomavirus type 16) (UniProt P03101)
HPV16 L1L2 pseudovirus = target: T1, HPV16 L1L2 pseudovirus (Human papillomavirus type 16, L1 …); experiment: cryo-EM structure; details: both partners purified
T1 construct: also called HPV16 PsV; HPV16 PsVs; copies: 360 +
T1 chain: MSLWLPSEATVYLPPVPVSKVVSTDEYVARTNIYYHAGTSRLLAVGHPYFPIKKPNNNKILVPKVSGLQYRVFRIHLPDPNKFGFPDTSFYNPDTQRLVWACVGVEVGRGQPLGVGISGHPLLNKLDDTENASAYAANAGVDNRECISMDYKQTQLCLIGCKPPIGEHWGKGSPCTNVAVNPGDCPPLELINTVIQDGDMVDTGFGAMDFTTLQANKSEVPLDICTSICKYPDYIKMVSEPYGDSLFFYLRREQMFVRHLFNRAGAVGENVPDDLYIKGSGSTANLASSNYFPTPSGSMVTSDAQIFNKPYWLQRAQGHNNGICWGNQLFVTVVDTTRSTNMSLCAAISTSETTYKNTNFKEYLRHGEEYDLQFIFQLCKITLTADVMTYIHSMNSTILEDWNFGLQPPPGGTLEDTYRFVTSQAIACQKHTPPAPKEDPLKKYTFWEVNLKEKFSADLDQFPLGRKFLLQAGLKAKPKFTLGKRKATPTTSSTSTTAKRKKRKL

Row | Binder | PsV-based neutralization assay on 293FT cells: IC50, the antibody concentration required to block viral entry by 50% [1] | stoichiometry N (HPV16 L1L2 pseudovirus)
1 | B1 | 0.4 ng/mL | 
2 | B2 |  | 360 Fabs per capsid
